Earlier results on one substance are cited in PMC3749792.

Among the targets are His27 (UniProt position 53, AGYQLHEDGET); His40 (UniProt position 66, SNSYPHKYNNY); His92 (UniProt position 118, AGVITHTGASG).
Test in all cases: NMR
Holding throughout (settings): RNase T1, presumably free unmodified enzyme (not stated explicitly)

As to “Ribonuclease T1 (RNase T1) (Aspergillus oryzae)”, the pKa is reported as 7.26 with His27, 7.92 with His40 and 7.80 with His92.
